Experimental data published in US20250235545A1, “POLYPEPTIDE CONJUGATE AND USE THEREOF” (SHANGHAI CHIXI BIOMEDICAL TECHNOLOGY CO., LTD, priority 2024, published 2025).
In brackets after ≈: the same amount, converted by molar mass. Read-outs that look alike come from different tables or passages of the source. Where a SMILES comes first, the peptide text is derived from it. The star is where a group is joined. NEt(2-(20S-CPT-7-yl)ethyl) = CCN(CCc1c2c(nc3ccccc13)-c1cc3c(c(=O)n1C2)COC(=O)[C@]3(O)CC)*; Belotecan = CC[C@@]1(O)C(=O)OCc2c1cc1n(c2=O)Cc2c-1nc1ccccc1c2CCN(C(C)C)*; X8 = CC[C@@]1(O)C(=O)OCc2c1cc1n(c2=O)Cc2c-1nc1ccccc1c2CCN(C1CCCC1)*; Propanoyl(3-maleimido) = O=C1C=CC(=O)N1CCC(=O)*; PEG6 = NCCOCCOCCOCCOCCOCCOCCC(=O)O

Experiments:
[1] = system: colo320 colorectal cancer tumor model
Method in brief: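 Female BALB/c nude mice, 6–8 weeks old, received 7.5×10^6 colo320 cells subcutaneously in the right chest. Once tumors reached at least 120 mm^3 they were randomized three per group. Treatment with test agents or saline control was given once weekly for four weeks.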

[2] = Tumor homogenate activation efficiency, breast cancer tissue (Examples 28, 37); format: in vitro ADME; conditions: pH 5.0, 37° C., 2 h; Table 5
Procedure: (§1) Buffer preparation: 50 mM PH buffer (MES), 250 mM NaCl, pH adjusted to 5.0 with 0.5 M of sodium hydroxide.
(§2) The polypeptide conjugate was prepared into a 1 mg/ml solution with pH 5.0 buffer, 100 μg of tumor tissue homogenate was added, (the tumor tissue homogenate was the homogenate of tumor tissues prepared with a Jingxin F6/10 handheld homogenizer), and the solution was placed at 37° C. for 2 h. The tumor tissue homogenate could effectively activate the polypeptide conjugate and release Belotecan, and the activation efficiencies of the drugs in tumor tissues were compared by high-performance liquid chromatography (HPLC) allowing determination of a decrease in the compounds and an increase in Belotecan:
(§3) Release percentage=peak area of Belotecan/total peak area of Belotecan and all other Belotecan-containing compounds
as §2, with “HPLC” for “high-performance liquid chromatography (HPLC)”, “Belotecan: […]” for “Belotecan:”

[3] = Tumor homogenate activation efficiency, sarcoma tissue (Examples 28, 37); format: in vitro ADME; conditions: pH 5.0, 37° C., 2 h; Table 5
Procedure: as §1, §2, §3
as §2, with “HPLC” for “high-performance liquid chromatography (HPLC)”, “Belotecan: […]” for “Belotecan:”

[4] = Tumor homogenate activation efficiency, ovarian cancer tissue (Examples 28, 37); format: in vitro ADME; conditions: pH 5.0, 37° C., 2 h; Table 5
Procedure: as §1, §2, §3
as §2, with “HPLC” for “high-performance liquid chromatography (HPLC)”, “Belotecan: […]” for “Belotecan:”

[5] = MTD determination in mice (Examples 27, 36, 44); format: in vivo; conditions: female, mouse, in vivo; mice, monitored for 14 d; Table 4
From the text: Test animals: 6-8 weeks old mice, all female; mice were grouped randomly, with six mice in each group, administered with drugs at different concentration gradients separately and monitored for 14 d. A mouse was euthanized at a loss of 20% of its initial weight and deemed to have died of poisoning.

[6] = Tumor homogenate activation efficiency, small cell lung cancer tissue (Example 28); format: in vitro ADME; conditions: pH 5.0, 37° C., 2 h; Table 5
Procedure: as §1, §2, §3

[7] = system: sarcoma SJSA-1 tumor model; conditions: Table 2
Method in brief: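 SJSA-1 cells (2×10^7, DMEM/10% FBS, under 15 passages) implanted subcutaneously in right chest of female BALB/c nude mice, 6-8 weeks old. At ≥100 mm^3, randomized three per group; dosing once weekly for three weeks, saline as control, day 1 = first treatment.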

[8] = Tumor homogenate activation efficiency, non-small cell lung cancer tissue (Examples 28, 37); format: in vitro ADME; conditions: pH 5.0, 37° C., 2 h; Table 5
Procedure: as §1, §2, §3
as §2, with “HPLC” for “high-performance liquid chromatography (HPLC)”, “Belotecan: […]” for “Belotecan:”

A2780 (ovarian cancer) = experiment: cells; format: cell-based; conditions: CCK8, 48 h; Table 1
Method in brief: (§4)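 Tumour cells grow for 48 h with the compounds at several concentrations (5,000 cells/well, triplicate, 37° C, 5% CO2), in serum-supplemented RPMI1640 or high-glucose DMEM. Viability is measured with CCK8 reagent at 450 nm, and IC50 is calculated.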

[9] = system: A549 (non-small cell lung cancer); experiment: cells; format: cell-based; conditions: CCK8, 48 h; Table 1
Method in brief: as §4

[10] = system: SKBR3 (breast cancer tissue); experiment: cells; format: cell-based; conditions: CCK8, 48 h; Table 1
Method in brief: as §4

SJSA-1 (sarcoma tissue) = experiment: cells; format: cell-based; conditions: CCK8, 48 h; Table 1
Method in brief: as §4

[11] = Homogenate activation efficiency, heart tissue (Examples 28, 37); format: in vitro ADME; conditions: pH 5.0, 37° C., 2 h; Table 5
[12] = 15 mg/kg once a week for four weeks, Table 3
[13] = 45 mg/kg once a week for four weeks, Table 3
[14] = Table 14 (Example 43), dose 45 mg/kg, once a week for four weeks, BALB/c mice
[15] = 15 mg/kg once a week for three weeks
[16] = 45 mg/kg once a week for three weeks
[17] = Table 13 (Example 42), dose 45 mg/kg, once a week for four weeks, BALB/c mice

Compound | Mouse weight (%) [1, 12] | colo320 (colorectal cancer cell) growth rate (%) [1, 12] | colo320 (colorectal cancer cell) mean tumor volume (mm^3) [1, 12] | Mouse weight (%) [1, 13] | colo320 (colorectal cancer cell) growth rate (%) [1, 13] | colo320 (colorectal cancer cell) mean tumor volume (mm^3) [1, 13] | Mouse weight (%) [1, 14] | colo320 (colorectal cancer cell) growth rate (%) [1, 14] | Percentage of release efficiency (%) Breast cancer tissue (SKBR3) [2] | Percentage of release efficiency (%) Sarcoma tissue (SJSA1) [3] | Percentage of release efficiency (%) Ovarian cancer tissue (A2780) [4] | MTD at 14 d [5] | Percentage of release efficiency (%) Small cell lung cancer tissue (NCI-H841) [6] | Mouse weight (%) [7, 15] | Percentage of release efficiency (%) Non-small cell lung cancer tissue (A549) [8] | IC50 A2780 (ovarian cancer) (A2780 (ovarian cancer)) | IC50 A549 (non-small cell lung cancer) [9] | IC50 SKBR3 (breast cancer tissue) [10] | IC50 SJSA-1 (sarcoma tissue) (SJSA-1 (sarcoma tissue)) | Percentage of release efficiency (%) Heart tissue [11] | also measured
CCN(CCc1c2c(nc3ccccc13)-c1cc3c(c(=O)n1C2)COC(=O)[C@]3(O)CC)C(=O)CNC(=O)[C@H](CCCCN)NC(=O)[C@H](C)NC(=O)[C@H](C)NC(=O)CCOCCOCCOCCOCCOCCOCCNC(=O)CCN1C(=O)C=CC1=O [MI-6PEG-AAKG-D2] ({Propanoyl(3-maleimido)-PEG6}-AAKG-{NEt(2-(20S-CPT-7-yl)ethyl)}) | +27% | 943.33% | 1044.8 mm^3 | +24% | 470.58% | 521.2 mm^3 | +24% | 470.58% | 69.5% | 76.6% | 85.8% | 350 mg/kg | 68% | +27% | 69.8% | 0.80 µg/mL (≈ 0.649 µM) | 1.32 µg/mL (≈ 1.07 µM) | 2.62 µg/mL (≈ 2.12 µM) | 0.49 µg/mL (≈ 0.397 µM) | 1.5% | colo320 (colorectal cancer cell) mean tumor volume (mm^3) [1, 14]: 521.2 mm^3; SJSA-1 (sarcoma tissue) mean tumor volume (mm^3) [7, 15]: 1215.6 mm^3; SJSA-1 (sarcoma) Growth rate (%) [7, 15]: 980.32%; Mouse weight (%) [7, 16]: +31%; SJSA-1 (sarcoma tissue) mean tumor volume (mm^3) [7, 16]: 945.6 mm^3; SJSA-1 (sarcoma) Growth rate (%) [7, 16]: 791.30%
CC[C@@]1(O)C(=O)OCc2c1cc1n(c2=O)Cc2c-1nc1ccccc1c2CCN(C(=O)CNC(=O)[C@H](CC(N)=O)NC(=O)[C@H](C)NC(=O)[C@H](C)NC(=O)CCOCCOCCOCCOCCOCCOCCNC(=O)CCN1C(=O)C=CC1=O)C1CCCC1 [MI-6PEG-AANG-D8] ({Propanoyl(3-maleimido)-PEG6}-AANG-X8) | – | – | – | +21% | – | – | – | – | 70.9% | 71.1% | 70.1% | 400 mg/kg | 80.8% | +35% | 85.1% | 1.21 µg/mL (≈ 0.961 µM) | 2.51 µg/mL (≈ 1.99 µM) | 2.55 µg/mL (≈ 2.02 µM) | 0.87 µg/mL (≈ 0.691 µM) | 3% | –
CC[C@@]1(O)C(=O)OCc2c1cc1n(c2=O)Cc2c-1nc1ccccc1c2CCN(C(=O)CNC(=O)[C@H](Cc1ccccc1)NC(=O)CNC(=O)CNC(=O)CCOCCOCCOCCOCCOCCOCCNC(=O)CCN1C(=O)C=CC1=O)C(C)C [MI-6PEG-GGFG-Belotecan] ({Propanoyl(3-maleimido)-PEG6}-GGFG-Belotecan) | +27% | 1057.73% | 1171.5 mm^3 | +34% | 525.03% | 581.5 mm^3 | +34% | 525.03% | 67.7% | 83.4% | 81.5% | 180 mg/kg | 77.3% | +29% | 72.7% | 2.60 µg/mL (≈ 2.1 µM) | 3.61 µg/mL (≈ 2.92 µM) | 6.15 µg/mL (≈ 4.97 µM) | 1.50 µg/mL (≈ 1.21 µM) | 1.9% | Mouse weight (%) [1, 17]: +34%; colo320 (colorectal cancer cell) growth rate (%) [1, 17]: 525.03%; colo320 (colorectal cancer cell) mean tumor volume (mm^3) [1, 17]: 581.5 mm^3; colo320 (colorectal cancer cell) mean tumor volume (mm^3) [1, 14]: 581.5 mm^3; SJSA-1 (sarcoma tissue) mean tumor volume (mm^3) [7, 15]: 1453.1 mm^3; SJSA-1 (sarcoma) Growth rate (%) [7, 15]: 1257.35%; Mouse weight (%) [7, 16]: +31%; SJSA-1 (sarcoma tissue) mean tumor volume (mm^3) [7, 16]: 979.5 mm^3; SJSA-1 (sarcoma) Growth rate (%) [7, 16]: 844.40%
CC[C@@]1(O)C(=O)OCc2c1cc1n(c2=O)Cc2c-1nc1ccccc1c2CCN(C(=O)CNC(=O)[C@H](Cc1ccccc1)NC(=O)CNC(=O)CNC(=O)CCOCCOCCOCCOCCOCCOCCNC(=O)CCN1C(=O)C=CC1=O)C1CCCC1 [MI-6PEG-GGFG-D8] ({Propanoyl(3-maleimido)-PEG6}-GGFG-X8) | – | – | – | +17% | – | – | – | – | 81.2% | 72.7% | 76% | 250 mg/kg | 66.7% | +19% | 77.5% | 3.77 µg/mL (≈ 2.98 µM) | 4.93 µg/mL (≈ 3.9 µM) | 11.26 µg/mL (≈ 8.91 µM) | 2.35 µg/mL (≈ 1.86 µM) | 3.1% | –
